Test results reported in patent US20220315654A1.

Target: recombinant cynomolgus monkey PD-L1 soluble protein (biotinylated) (cynomolgus monkey) (UniProt G7PSE7)
Assay: sandwich ELISA: antibody captured on coated anti-human Fc, biotinylated recombinant cynomolgus PD-L1 titrated (x axis, nM), streptavidin-HRP/Amplex red fluorescence

recombinant cynomolgus monkey PD-L1 soluble protein (biotinylated) (cynomolgus monkey), sequence (G7PSE7 entry or part of it limits assumed): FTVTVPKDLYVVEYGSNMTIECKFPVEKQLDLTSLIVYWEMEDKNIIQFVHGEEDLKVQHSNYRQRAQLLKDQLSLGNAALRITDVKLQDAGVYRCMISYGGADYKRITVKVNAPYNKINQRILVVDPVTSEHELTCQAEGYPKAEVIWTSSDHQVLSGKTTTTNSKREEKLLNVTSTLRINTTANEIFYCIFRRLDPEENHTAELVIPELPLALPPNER
Avelumab (antibody), sequence (VH): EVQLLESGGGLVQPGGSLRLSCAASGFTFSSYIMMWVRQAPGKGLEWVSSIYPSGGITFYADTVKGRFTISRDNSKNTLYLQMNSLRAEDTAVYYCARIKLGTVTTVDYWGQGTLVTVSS
Avelumab (antibody), sequence (VL): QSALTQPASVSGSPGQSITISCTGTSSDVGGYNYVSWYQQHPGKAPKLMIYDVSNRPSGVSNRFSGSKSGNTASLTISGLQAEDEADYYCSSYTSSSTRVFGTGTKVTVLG

EC50 (read off the curve): 50 pM
Substance: Avelumab (antibody)
